According to US20250277199, “NOVEL CRISPR-CAS NUCLEASES FROM METAGENOMES” (Brain Biotech AG, published 2025):

Biological target: T1, BMC09 (uncultured bacterium (metagenome))
T1 chain: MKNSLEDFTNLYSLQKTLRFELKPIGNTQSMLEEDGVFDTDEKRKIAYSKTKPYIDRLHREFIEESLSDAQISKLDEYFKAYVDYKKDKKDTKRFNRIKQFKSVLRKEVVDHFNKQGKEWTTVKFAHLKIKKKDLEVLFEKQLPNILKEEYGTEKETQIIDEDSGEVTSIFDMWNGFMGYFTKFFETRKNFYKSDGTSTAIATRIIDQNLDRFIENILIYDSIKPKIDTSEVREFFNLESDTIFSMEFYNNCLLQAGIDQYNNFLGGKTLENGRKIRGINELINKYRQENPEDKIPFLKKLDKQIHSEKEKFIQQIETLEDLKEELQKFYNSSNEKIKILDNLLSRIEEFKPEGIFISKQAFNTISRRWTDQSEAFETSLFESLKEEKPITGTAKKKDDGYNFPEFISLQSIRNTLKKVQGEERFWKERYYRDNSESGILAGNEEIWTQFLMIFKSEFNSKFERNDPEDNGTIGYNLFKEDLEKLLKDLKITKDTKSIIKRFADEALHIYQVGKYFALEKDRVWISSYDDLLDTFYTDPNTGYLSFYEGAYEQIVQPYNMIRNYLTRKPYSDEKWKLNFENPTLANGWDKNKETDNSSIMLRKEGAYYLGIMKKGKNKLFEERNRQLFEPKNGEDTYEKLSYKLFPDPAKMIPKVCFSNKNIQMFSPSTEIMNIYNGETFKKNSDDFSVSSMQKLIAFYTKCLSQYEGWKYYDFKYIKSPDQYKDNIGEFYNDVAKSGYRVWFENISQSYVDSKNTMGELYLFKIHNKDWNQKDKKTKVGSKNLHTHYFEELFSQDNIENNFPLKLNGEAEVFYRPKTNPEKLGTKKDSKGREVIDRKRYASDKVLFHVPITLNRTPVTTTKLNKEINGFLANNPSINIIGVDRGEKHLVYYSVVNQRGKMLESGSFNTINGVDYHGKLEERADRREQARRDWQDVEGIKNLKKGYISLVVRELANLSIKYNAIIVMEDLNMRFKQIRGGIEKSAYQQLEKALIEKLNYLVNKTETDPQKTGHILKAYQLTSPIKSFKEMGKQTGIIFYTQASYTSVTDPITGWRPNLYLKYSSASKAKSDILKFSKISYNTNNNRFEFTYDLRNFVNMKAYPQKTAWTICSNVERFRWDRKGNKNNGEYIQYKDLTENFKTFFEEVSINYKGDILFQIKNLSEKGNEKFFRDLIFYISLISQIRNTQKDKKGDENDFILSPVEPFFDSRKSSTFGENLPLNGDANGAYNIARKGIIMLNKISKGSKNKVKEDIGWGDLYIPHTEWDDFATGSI
Assay: cell_activity; PAM not stated; E. coli depletion, 30 C
Procedure: Overnight grown pre-cultures were diluted into fresh 60 ml LB-Kanamycin (25 μg/ml) (Example 4) or LB-Kanamycin (25μg/ml)/Nourseothricin (50 μg/ml) medium (Example 5) to obtain an optical density at 600 nm (OD600) of 0.06. The inoculated medium was incubated at 30° C. on a horizontal shaker at 250 rpm until the culture reached an optical density at OD600 of 0.2. For induced BMC (NN) nuclease expression, 600 μl 20% L-(+)-arabinose (w/v) was added to the culture at a final concentration of 0.2% (v/v). The cultivation was continued until the culture reached an optical density at OD600 of 0.5. Subsequently 50 ml culture was transferred into one 50 ml conical tube and harvested by centrifugation at 4° C. for 5 min and 4000×g. Pelleted cells were resuspended in 50 ml ultrapure water (ice-cold) and centrifuged at 4° C. for 5 min and 4000×g.
This washing procedure was repeated twice. Washed cells were resuspended in 25 ml 10% (w/w) glycerin and re-centrifuged at 4° C. for 5 min and 4000×g. The pelleted cells were resuspended in 5 ml 10% (w/w) glycerin. After the final centrifugation step at 4° C. for 5 min and 4000×g, the cells were resuspended in 125 μl 10% (w/w) glycerin. Aliquots of 25 μl competent cells were stored at −80° C. until use. For the transformation procedure, aliquots of competent cells were thawed on ice and 50-100 ng plasmid DNA (CRISPR/gRNA-Ec) was added. Prepared cells were electroporated at 1800 V, 25 μF and 200 Ω in 1 mm gap size electroporation cuvettes, using the Bio-Rad Gene Pulser Xcell Electroporation System. Subsequently, 975 μL of NEB® 10-beta/Stable Outgrowth Medium was added immediately after the pulse to the transformed cells. Regeneration was done at 30° C. on a horizontal shaker at 250 rpm. Finally, 25-100 μl of the cell suspension was plated onto selective M9-Glucose agar plates supplemented with Kanamycin (25 μg/ml)/Ampicillin (100 μg/ml) (Example 4) or Kanamycin (25 μg/ml)/Ampicillin (100 μg/ml)/Nourseothrin (50 μg/ml) (Example 5). Growth of transformed E. coli cells on selective agar plates was screened for 48 h at 30° C.
As described above, each of the BMC01, BMC02, BMC03, BMC04, BMC05, BMC07, BMC08, BMC09, BMC10, BMC11, BMC12, BMC13, BMC14, or BMC15 nucleases was co-transformed into E. coli with a gRNA targeting the E. coli malQ gene to visualize a) the activity and b) the DNA targeting efficiency of the BMC nucleases.

B1: malQ gRNA (BMC stem-loop + 24 nt spacer) ; malQ protospacer (ssRNA ; dsDNA)
RNA: GAUUUCUACUAUUGUAGAUGUGGCGGUACGUUGAUGCAUCGCG
DNA 1: GTGGCGGTACGTTGATGCATCGCG
DNA 2: CGCGATGCATCAACGTACCGCCAC
  activity: > 99.9 % colony reduction
